From publication PMC3630089, “ATP-Dependent Chromatin Remodeling by Cockayne Syndrome Protein B and NAP1-Like Histone Chaperones Is Required for Efficient Transcription-Coupled DNA Repair” (PLoS Genetics, 2013) come the findings set out here.

This experiment has as its target T1, CSBΔN1 (CSB lacking amino acids 245-365), purified from SF9 cells (human, UniProt Q03468 1-1493, removing amino acids 245–365).
T1 construct: CSB with the N1 region (amino acids 245-365) removed; probably Flag-tagged like the other SF9 CSB proteins; source: SF9 cells, purified
Nature of the experiment: pull-down; GST-NAP1L1 immobilized on glutathione beads, mixed with purified CSB or CSBΔN1; Western blot. As to conditions: both partners purified.

T1 sequence (Q03468 other isoform, or with tags, fused parts or gaps with the stated changes): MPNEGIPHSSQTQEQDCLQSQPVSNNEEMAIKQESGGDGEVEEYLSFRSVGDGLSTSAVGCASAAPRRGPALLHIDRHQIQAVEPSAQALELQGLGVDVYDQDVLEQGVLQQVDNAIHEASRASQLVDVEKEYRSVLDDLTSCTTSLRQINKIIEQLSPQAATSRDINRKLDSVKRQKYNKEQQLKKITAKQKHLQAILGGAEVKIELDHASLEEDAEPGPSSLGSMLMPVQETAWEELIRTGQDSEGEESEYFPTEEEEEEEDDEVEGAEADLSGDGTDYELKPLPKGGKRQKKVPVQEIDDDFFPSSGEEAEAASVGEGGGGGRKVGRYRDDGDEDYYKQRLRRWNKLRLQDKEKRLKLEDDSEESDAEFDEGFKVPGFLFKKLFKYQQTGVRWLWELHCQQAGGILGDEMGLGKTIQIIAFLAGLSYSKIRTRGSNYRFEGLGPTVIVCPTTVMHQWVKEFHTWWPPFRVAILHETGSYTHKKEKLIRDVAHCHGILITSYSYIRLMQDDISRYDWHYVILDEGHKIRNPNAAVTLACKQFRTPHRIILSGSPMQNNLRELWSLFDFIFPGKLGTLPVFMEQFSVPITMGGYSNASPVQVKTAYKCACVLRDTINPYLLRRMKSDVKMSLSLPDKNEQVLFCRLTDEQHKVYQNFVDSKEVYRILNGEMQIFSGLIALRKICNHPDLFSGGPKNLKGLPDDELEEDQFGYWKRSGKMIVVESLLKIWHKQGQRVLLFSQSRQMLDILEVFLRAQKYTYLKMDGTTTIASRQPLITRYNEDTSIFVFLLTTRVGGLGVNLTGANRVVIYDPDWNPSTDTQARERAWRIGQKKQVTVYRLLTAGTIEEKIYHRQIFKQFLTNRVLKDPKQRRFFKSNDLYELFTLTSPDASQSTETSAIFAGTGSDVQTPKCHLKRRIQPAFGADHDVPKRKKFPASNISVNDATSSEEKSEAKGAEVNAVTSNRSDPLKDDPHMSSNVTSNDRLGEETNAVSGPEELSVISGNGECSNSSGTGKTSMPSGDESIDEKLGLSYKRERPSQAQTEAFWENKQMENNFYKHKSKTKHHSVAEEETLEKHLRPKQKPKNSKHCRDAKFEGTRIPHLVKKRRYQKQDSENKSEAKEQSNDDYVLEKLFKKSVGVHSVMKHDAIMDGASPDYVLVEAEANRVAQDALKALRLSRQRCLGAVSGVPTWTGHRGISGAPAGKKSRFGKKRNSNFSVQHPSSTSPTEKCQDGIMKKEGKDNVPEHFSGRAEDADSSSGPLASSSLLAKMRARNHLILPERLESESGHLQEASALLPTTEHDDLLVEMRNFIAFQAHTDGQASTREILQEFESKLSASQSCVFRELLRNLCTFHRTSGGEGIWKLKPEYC

B1: GST-NAP1L1 fusion protein (natural protein, human, UniProt P55209 1-391, looked up)
chain: MADIDNKEQSELDQDLDDVEEVEEEETGEETKLKARQLTVQMMQNPQILAALQERLDGLVETPTGYIESLPRVVKRRVNALKNLQVKCAQIEAKFYEEVHDLERKYAVLYQPLFDKRFEIINAIYEPTEEECEWKPDEEDEISEELKEKAKIEDEKKDEEKEDPKGIPEFWLTVFKNVDLLSDMVQEHDEPILKHLKDIKVKFSDAGQPMSFVLEFHFEPNEYFTNEVLTKTYRMRSEPDDSDPFSFDGPEIMGCTGCQIDWKKGKNVTLKTIKKKQKHKGRGTVRTVTKTVSNDSFFNFFAPPEVPESGDLDDDAEAILAADFEIGHFLRERIIPRSVLYFTGEAIEDDDDDYDEEGEEADEEGEEEGDEENDPDYDPKKDQNPAECKQQ
notes: human NAP1-like histone chaperone NAP1L1; source: bacterially expressed, immobilized on glutathione beads
In the case of B1, the binding result is “binds”.
